Patent publication US11814435B2, “Therapeutic antibodies and their uses” (PFIZER INC., priority 2015, dated 2023)
Where a chain is given by its changes, count along the chain named.

Experiments:
[1] = system: cyBCMA; test: Kinetics and affinity of cyBCMA/human IgG interactions by SPR (Bio-Rad Proteon XPR36); assay type: binding, cynomolgus
[2] = target: T1, hBCMA (human BCMA) (Homo sapiens, UniProt Q02223); test: Kinetics and affinity of hBCMA/human IgG interactions by SPR (Bio-Rad Proteon XPR36); assay type: binding; details: huBCMA
T1 sequence (Q02223 1-184): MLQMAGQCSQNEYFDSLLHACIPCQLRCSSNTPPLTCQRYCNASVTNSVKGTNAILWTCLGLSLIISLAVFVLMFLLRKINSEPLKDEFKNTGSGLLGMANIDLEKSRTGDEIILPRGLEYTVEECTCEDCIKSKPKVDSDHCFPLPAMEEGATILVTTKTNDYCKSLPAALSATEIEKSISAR
Description: All experiments were performed on a Bio-Rad Proteon XPR36 surface Plasmon resonance biosensor (Bio-Rad, Hercules, Calif.). An array of anti-BCMA antibodies was prepared using an amine-coupling method on a Bio-Rad GLC Sensor Chip similar to that described in Abdiche, et al., Anal. Biochem. 411, 139-151 (2011). The analysis temperature for the immobilization was 25° C. and the running buffer was HBS-T+(10 mM HEPES, 150 mM NaCl, 0.05% Tween-20, pH 7.4). Channels were activated in the analyte (horizontal) direction by injecting a mixture of 1 mM ECD and 0.25 mM NHS for 3 minutes at a flow rate of 30 μL/min. IgGs were immobilized on the activated spots by injecting them in the ligand (vertical) direction at 20 μg/mL in 10 mM Acetate pH 4.5 buffer for 1.5 minutes at […]. The activated surfaces were blocked by injecting 1M ethanolamine, pH 8.5 in the analyte direction for 3 minutes at 30 μL/min.
The analysis temperature for the hBCMA binding analysis was 37° C. or 25° C. in a running buffer of HBS-T+, supplemented with 1 mg/mL BSA. A kinetic titration method was employed for the interaction analysis as described in Abdiche, et al. The hBCMA (human BCMA) analyte was injected in the analyte direction using a series of injections from low to high concentration. The concentrations used were 0.08 nM, 0.4 nM, 2 nM, 10 nM and 50 nM (a 5-membered series, with a 5-fold dilution factor and top concentration of 50 nM). The association time for a given analyte dilution was two minutes. Immediately after the 50 nM hBCMA injection, dissociation was monitored for 2 hours. Prior to the hBCMA analyte injections, buffer was injected 5 times using the same association and dissociation times at the hBCMA analyte cycles to prepare a buffer blank sensorgram for double-referencing purposes (double referencing as described in Myszka, J. Mol. Recognit. 12, 279-284 (1999).
The sensorgrams were double-referenced and fit to a 1:1 Langmuir with mass transport kinetic titration model in BIAevaluation Software version 4.1.1 (GE Lifesciences, Piscataway, N.J.). The sensorgrams and fits are shown in FIG. 1, and the kinetics and affinity parameters for various anti-BCMA antibodies of the present invention are shown in Tables 6A-6C.

B1: L3.PY/L3.KF/H3.YA: anti-BCMA antibody (antibody, V domains shown)
VH: EVQLLESGGGLVQPGGSLRLSCAASGFTFGSYAMTWVRQAPGKGLEWVSAISGSGGNTFYADSVKGRFTISRDNSKNTLYLQMNSLRAEDTAVYYCARVSPIYAGMDYWGQGTLVTVSS
VL: EIVLTQSPGTLSLSPGERATLSCRASQSVSSSYLAWYQQKPGQAPRLLIYGASSRATGIPDRFSGSGSGTDFTLTISRLEPEDFAVYYCKFYPYPPSFTFGQGTKVEIK
ka (1/Ms) cyBCMA @ 37° C. [1]: 2.1e+06 M⁻¹ s⁻¹
kd (1/s) cyBCMA @37° C. [1]: 0.00796 s⁻¹
ka (1/Ms) huBCMA @ 37° C. [2]: 3.12e+06 M⁻¹ s⁻¹
kd (1/s) huBCMA @37° C. [2]: 0.00147 s⁻¹

B2: L1.GDF/L3.NY/H3.AP: anti-BCMA antibody (antibody, V domains shown)
VH: B1 VH with Y103A, G105P
VL: B1 VL with S30G, S31D, S32F, K90Q, F91H, P93N
ka (1/Ms) cyBCMA @ 25° C. [1]: 1.36e+06 M⁻¹ s⁻¹
kd (1/s) cyBCMA @25° C. [1]: 0.00702 s⁻¹
ka (1/Ms) huBCMA @ 25° C. [2]: 1.41e+06 M⁻¹ s⁻¹
kd (1/s) huBCMA @25° C. [2]: 0.00141 s⁻¹

B3: L1.LGF/L3.NY/H3.AP: anti-BCMA antibody (antibody, V domains shown)
VH: B1 VH with Y103A, G105P
VL: B1 VL with V29L, S30G, S32F, K90Q, F91H, P93N
ka (1/Ms) cyBCMA @ 25° C. [1]: 830000 M⁻¹ s⁻¹
kd (1/s) cyBCMA @25° C. [1]: 0.00557 s⁻¹
ka (1/Ms) huBCMA @ 25° C. [2]: 936000 M⁻¹ s⁻¹
kd (1/s) huBCMA @25° C. [2]: 0.000533 s⁻¹

B4: L1.LGF/L3.PY/H3.AP: anti-BCMA antibody (antibody, V domains shown)
VH: B1 VH with Y103A, G105P
VL: B1 VL with V29L, S30G, S32F, K90Q, F91H
ka (1/Ms) cyBCMA @ 25° C. [1]: 364000 M⁻¹ s⁻¹
kd (1/s) cyBCMA @25° C. [1]: 0.013 s⁻¹
ka (1/Ms) huBCMA @ 25° C. [2]: 457000 M⁻¹ s⁻¹
kd (1/s) huBCMA @25° C. [2]: 0.000969 s⁻¹

B5: L1.LGF/L3.KW/H3.AP: anti-BCMA antibody (antibody, V domains shown)
VH: B1 VH with Y103A, G105P
VL: B1 VL with V29L, S30G, S32F, F91H, P93G, Y94W
ka (1/Ms) cyBCMA @ 25° C. [1]: 554000 M⁻¹ s⁻¹
kd (1/s) cyBCMA @25° C. [1]: 0.0154 s⁻¹
ka (1/Ms) huBCMA @ 25° C. [2]: 928000 M⁻¹ s⁻¹
kd (1/s) huBCMA @25° C. [2]: 0.00227 s⁻¹

B6: L1.LGF/L3.KW/H3.AL: anti-BCMA antibody (antibody, V domains shown)
VH: B1 VH with Y103A, G105L
VL: B1 VL with V29L, S30G, S32F, F91H, P93G, Y94W
ka (1/Ms) cyBCMA @ 25° C. [1]: 290000 M⁻¹ s⁻¹
kd (1/s) cyBCMA @25° C. [1]: 0.0121 s⁻¹
ka (1/Ms) huBCMA @ 25° C. [2]: 428000 M⁻¹ s⁻¹
kd (1/s) huBCMA @25° C. [2]: 0.00123 s⁻¹

B7: L3.PY/H2.YQ: anti-BCMA antibody (antibody, V domains shown)
VH: B1 VH with G53Y, S54Q, Y103A, A104S
VL: B1 VL with K90Q, F91H
ka (1/Ms) cyBCMA @ 37° C. [1]: 2.46e+06 M⁻¹ s⁻¹
kd (1/s) cyBCMA @37° C. [1]: 0.00621 s⁻¹
ka (1/Ms) huBCMA @ 37° C. [2]: 2.58e+06 M⁻¹ s⁻¹
kd (1/s) huBCMA @37° C. [2]: 0.00156 s⁻¹

B8: L1.LGF/L3.NY/H3.AL: anti-BCMA antibody (antibody, V domains shown)
VH: B1 VH with Y103A, G105L
VL: B1 VL with V29L, S30G, S32F, K90Q, F91H, P93N
ka (1/Ms) cyBCMA @ 25° C. [1]: 635000 M⁻¹ s⁻¹
kd (1/s) cyBCMA @25° C. [1]: 0.0148 s⁻¹
ka (1/Ms) huBCMA @ 25° C. [2]: 763000 M⁻¹ s⁻¹
kd (1/s) huBCMA @25° C. [2]: 0.00097 s⁻¹

B9: L3.PY/L3.KF/H3.AE: anti-BCMA antibody (antibody, V domains shown)
VH: B1 VH with Y103A, G105E
VL: B1 VL
ka (1/Ms) cyBCMA @ 37° C. [1]: 1.85e+06 M⁻¹ s⁻¹
kd (1/s) cyBCMA @37° C. [1]: 0.00564 s⁻¹
ka (1/Ms) huBCMA @ 37° C. [2]: 3.07e+06 M⁻¹ s⁻¹
kd (1/s) huBCMA @37° C. [2]: 0.00155 s⁻¹

B10: L3.PY/L3.KF/H3.TAQ: anti-BCMA antibody (antibody, V domains shown)
VH: B1 VH with A97T, Y103A, G105Q
VL: B1 VL
ka (1/Ms) cyBCMA @ 37° C. [1]: 2.01e+06 M⁻¹ s⁻¹
kd (1/s) cyBCMA @37° C. [1]: 0.00191 s⁻¹
ka (1/Ms) huBCMA @ 37° C. [2]: 2.82e+06 M⁻¹ s⁻¹
kd (1/s) huBCMA @37° C. [2]: 0.00162 s⁻¹

B11: L3.PY/H2.QR: anti-BCMA antibody (antibody, V domains shown)
VH: B1 VH with S63Q, V64R, Y103A, A104S
VL: B1 VL with K90Q, F91H
ka (1/Ms) cyBCMA @ 37° C. [1]: 2.18e+06 M⁻¹ s⁻¹
kd (1/s) cyBCMA @37° C. [1]: 0.00658 s⁻¹
ka (1/Ms) huBCMA @ 37° C. [2]: 2.56e+06 M⁻¹ s⁻¹
kd (1/s) huBCMA @37° C. [2]: 0.00119 s⁻¹

B12: L1.GDF/L3.KW/H3.AP: anti-BCMA antibody (antibody, V domains shown)
VH: B1 VH with Y103A, G105P
VL: B1 VL with S30G, S31D, S32F, F91H, P93G, Y94W
ka (1/Ms) cyBCMA @ 25° C. [1]: 814000 M⁻¹ s⁻¹
kd (1/s) cyBCMA @25° C. [1]: 0.0203 s⁻¹
ka (1/Ms) huBCMA @ 25° C. [2]: 1.17e+06 M⁻¹ s⁻¹
kd (1/s) huBCMA @25° C. [2]: 0.00461 s⁻¹

B13: L1.GDF/L3.KW/H3.AL: anti-BCMA antibody (antibody, V domains shown)
VH: B1 VH with Y103A, G105L
VL: B1 VL with S30G, S31D, S32F, F91H, P93G, Y94W
ka (1/Ms) cyBCMA @ 25° C. [1]: 318000 M⁻¹ s⁻¹
kd (1/s) cyBCMA @25° C. [1]: 0.018 s⁻¹
ka (1/Ms) huBCMA @ 25° C. [2]: 445000 M⁻¹ s⁻¹
kd (1/s) huBCMA @25° C. [2]: 0.0039 s⁻¹

B14: L1.GDF/L3.NY/H3.AL: anti-BCMA antibody (antibody, V domains shown)
VH: B1 VH with Y103A, G105L
VL: B1 VL with S30G, S31D, S32F, K90Q, F91H, P93N
ka (1/Ms) cyBCMA @ 25° C. [1]: 900000 M⁻¹ s⁻¹
kd (1/s) cyBCMA @25° C. [1]: 0.0219 s⁻¹
ka (1/Ms) huBCMA @ 25° C. [2]: 907000 M⁻¹ s⁻¹
kd (1/s) huBCMA @25° C. [2]: 0.00403 s⁻¹

B15: L3.PY/H2.DY: anti-BCMA antibody (antibody, V domains shown)
VH: B1 VH with S52D, G53Y, Y103A, A104S
VL: B1 VL with K90Q, F91H
ka (1/Ms) cyBCMA @ 37° C. [1]: 2.24e+06 M⁻¹ s⁻¹
kd (1/s) cyBCMA @37° C. [1]: 0.00618 s⁻¹
ka (1/Ms) huBCMA @ 37° C. [2]: 2.6e+06 M⁻¹ s⁻¹
kd (1/s) huBCMA @37° C. [2]: 0.00138 s⁻¹
